Results as given in paper PMC6957217, “Molecular anatomy of the receptor binding module of a bacteriophage long tail fiber” (PLoS Pathogens, 2019).

Target: the molecule itself
Test: SEC; Hi-Load 16/60 Superdex-200 in PBS pH 7.4; trimers eluted at the expected 81 kDa size

B1: Phage T4 LTF needle (gp37; amino acids 799–1026), wild type (domain or fragment)
chain: not shown
notes: bacteriophage T4 long tail fiber protein gp37, needle (domains D10 and D11), amino acids 799-1026; pCDF Duet-1 MCS1; also called gp37 needle; WT gp37; source: E. coli BL21 (DE3) pLysS, co-expressed with chaperones gp38 and gp57A, purified (HisTrap, Superdex-200 SEC, trimer peak)
stoichiometry N: 3
